Reference: patent publication US20220356256A1 (published 2022)

Legend:
Experiment in all cases: SPR
[1] = target: 5057 Fz4 B8
[2] = target: 5067 Fz4 C6
[3] = target: 5074 Fz4 D1
[4] = target: 5039 Fz4 A2
[5] = target: 5045 Fz4 A8
[6] = target: 5056 Fz4 B7
[7] = target: 5073 Fz4 C12
[8] = target: 5054 Fz4 B5
[9] = target: 5048 Fz4 A11
[10] = target: 5075 Fz4 D2

Kd [1]: 2.56 nM | Kd [2]: 1.63 nM | Kd [3]: 3.61 nM | Kd [4]: 2.57 nM | Kd [5]: 1.3 nM | Kd [6]: 1.14 nM | Kd [7]: 0.422 nM | Kd [8]: 2.16 nM | Kd [9]: 3.71 nM | Kd [10]: 1.19 nM
B1: FZD4 (Fc fusion)
chain: FGDEEERRCDPIRISMCQNLGYNVTKMPNLVGHELQTDAELQLTTFTPLIQYGCSSQLQFFLCSVYVPMCTEKINIPIGPCGGMCLSVKRRCEPVLKEFGFAWPESLNCSKFPPQNDHNHMCMEGPGDEEVPLPHKTPIQPGEE
